In data set [1] the test system is HeLa Kyoto. The data set is described as follows: thermal stability score vs G1/S (z-score of summed log2 fold changes over temperatures); higher = more thermally stable than in G1/S.
The subject of data set [2] is HeLa Kyoto. The data set is described as follows: melting temperature (median over replicates), in situ; higher = more thermally stable.
[3] abbreviates: cell cycle stage: early G1 (4.5 h after nocodazole release).
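For melting temperature (median over replicates), in situ in this document: HeLa Kyoto cells synchronized by double thymidine or nocodazole block, proteins quantified by TMT10plex mass spectrometry, three independent biological replicates.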
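For thermal stability score vs G1/S (z-score of summed log2 fold changes over temperatures) in this document: synchronized HeLa Kyoto cells, proteins quantified by TMT10plex mass spectrometry, three biological replicates, mitosis taken 0.5 h after nocodazole release, G1/S directly after double thymidine block.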

As for “MTGEKIRSLRRDHKPSKEEGDLLEPGDEEAAAALGGTFTRSRIGKGGKACHKIFSNHHHRLQLKAAPASSNPPGAPALPLHNSSVTANSQSPALLAGTNPVAVVADGGSCPAHYPVHECVFKGDVRRLSSLIRTHNIGQKDNHGNTPLHLAVMLGNKECAHLLLAHNAPVKVKNAQGWSPLAEAISYGDRQMITALLRKLKQQSRESVEEKRPRLLKALKELGDFYLELHWDFQSWVPLLSRILPSDACKIYKQGINIRLDTTLIDFTDMKCQRGDLSFIFNGDAAPSESFVVLDNEQKVYQRIHHEESEMETEEEVDILMSSDIYSATLSTKSISFTRAQTGWLFREDKTERVGNFLADFYLVNGLVLESRKRREHLSEEDILRNKAIMESLSKGGNIMEQNFEPIRRQSLTPPPQNTITWEEYISAENGKAPHLGRELVCKESKKTFKATIAMSQEFPLGIELLLNVLEVVAPFKHFNKLREFVQMKLPPGFPVKLDIPVFPTITATVTFQEFRYDEFDGSIFTIPDDYKEDPSRFPDL [ANKRD13C]”, the values for the thermal stability score in the data set on HeLa Kyoto [1] (setting [3]) and in the data set with HeLa Kyoto [1] (cell cycle stage: mitosis) were -0.894 and -0.663, respectively.
On to “MEINTKLLISVTCISFFTFQLLFYFVSYWFSAKVSPGFNSLSFKKKIEWNSRVVSTCHSLVVGIFGLYIFLFDEATKADPLWGGPSLANVNIAIASGYLISDLSIIILYWKVIGDKFFIMHHCASLYAYYLVLKNGVLAYIGNFRLLAELSSPFVNQRWFFEALKYPKFSKAIVINGILMTVVFFIVRIASMLPHYGFMYSVYGTEPYIRLGVLIQLSWVISCVVLDVMNVMWMIKISKGCIKVISHIRQEKAKNSLQNGKLD [TMEM56]”, for which the thermal stability score with HeLa Kyoto [1] (setting [3]) is 0.000211; with HeLa Kyoto [1] (cell cycle stage: mitosis), -0.867.
Turning to “MGSQGSPVKSYDYLLKFLLVGDSDVGKGEILESLQDGAAESPYAYSNGIDYKTTTILLDGRRVKLELWDTSGQGRFCTIFRSYSRGAQGILLVYDITNRWSFDGIDRWIKEIDEHAPGVPRILVGNRLHLAFKRQVPTEQARAYAEKNCMTFFEVSPLCNFNVIESFTELSRIVLMRHGMEKIWRPNRVFSLQDLCCRAIVSCTPVHLIDKLPLPVTIKSHLKSFSMANGMNAVMMHGRSYSLASGAGGGGSKGNSLKRSKSIRPPQSPPQNCSRSNCKIS [RAB40C]”, the thermal stability score with HeLa Kyoto [1] (setting [3]) is -0.589; with HeLa Kyoto [1] (cell cycle stage: mitosis), -0.612.
Regarding “MSLCSPTHSAEMSLFLQGPEEMLPLSSEGSEMGSEKEQSPEPHLPEEGEGGKPWRVDDSEGSWIPPGEKEHGQESLSDELQETHPKKPWQKVTVRARELGDPIAHPRHEADEKPFICAQCGKTFNNTSNLRTHQRIHTGEKPYKCSECGKSFSRSSNRIRHERIHLEEKHYKCPKCQESFRRRSDLTTHQQDHLGKRPYRCDICGKSFSQSATLAVHHRTHLEPAPYICCECGKSFSNSSSFGVHHRTHTGERPYECTECGRTFSDISNFGAHQRTHRGEKPYRCTVCGKHFSRSSNLIRHQKTHLGEQAGKDSS [ZNF691]”, the melting temperature is 54.9 °C in the data set on HeLa Kyoto [2] (cell cycle stage: G1/S) and 53.1 °C with HeLa Kyoto [2] (cell cycle stage: mitosis).
As for “MELIQDTSRPPLEYVKGVPLIKYFAEALGPLQSFQARPDDLLINTYPKSGTTWVSQILDMIYQGGDLEKCNRAPIYVRVPFLEVNDPGEPSGLETLKDTPPPRLIKSHLPLALLPQTLLDQKVKVVYVARNPKDVAVSYYHFHRMEKAHPEPGTWDSFLEKFMAGEVSYGSWYQHVQEWWELSRTHPVLYLFYEDMKENPKREIQKILEFVGRSLPEETMDFMVQHTSFKEMKKNPMTNYTTVPQELMDHSISPFMRKGMAGDWKTTFTVAQNERFDADYAEKMAGCSLSFRSEL [SULT1A4]”, the melting temperature with HeLa Kyoto [2] (cell cycle stage: G1/S) was found to be 48.5 °C; in the data set on HeLa Kyoto [2] (cell cycle stage: mitosis), 49.2 °C.
“MFAKGKGSAVPSDGQAREKLALYVYEYLLHVGAQKSAQTFLSEIRWEKNITLGEPPGFLHSWWCVFWDLYCAAPERRDTCEHSSEAKAFHDYSAAAAPSPVLGNIPPNDGMPGGPIPPGFFQGPPGSQPSPHAQPPPHNPSSMMGPHSQPFMSPRYAGGPRPPIRMGNQPPGGVPGTQPLLPNSMDPTRQQGHPNMGGSMQRMNPPRGMGPMGPGPQNYGSGMRPPPNSLGPAMPGINMGPGAGRPWPNPNSANSIPYSSSSPGTYVGPPGGGGPPGTPIMPSPADSTNSSDNIYTMINPVPPGGSRSNFPMGPGSDGPMGGMGGMEPHHMNGSLGSGDIDGLPKNSPNNISGISNPPGTPRDDGELGGNFLHSFQNDNYSPSMTMSV [SSBP3]”: the melting temperature in the data set on HeLa Kyoto [2] (cell cycle stage: G1/S) was determined as 52.4 °C.
Turning to “MAGAGSAAVSGAGTPVAGPTGRDLFAEGLLEFLRPAVQQLDSHVHAVRESQVELREQIDNLATELCRINEDQKVALDLDPYVKKLLNARRRVVLVNNILQNAQERLRRLNHSVAKETARRRAMLDSGIYPPGSPGK [SNAPIN]”, the melting temperature with HeLa Kyoto [2] (cell cycle stage: G1/S) was found to be 53 °C; with HeLa Kyoto [2] (cell cycle stage: mitosis), 54.5 °C.
Consider “MAPRALPGSAVLAAAVFVGGAVSSPLVAPDNGSSRTLHSRTETTPSPSNDTGNGHPEYIAYALVPVFFIMGLFGVLICHLLKKKGYRCTTEAEQDIEEEKVEKIELNDSVNENSDTVGQIVHYIMKNEANADVLKAMVADNSLYDPESPVTPSTPGSPPVSPGPLSPGGTPGKHVCGHHLHTVGGVVERDVCHRCRHKRWHFIKPTNKSRESRPRRQGEVTVLSVGRFRVTKVEHKSNQKERRSLMSVSGAETVNGEVPATPVKRERSGTE [RELL1]”, for which, in the data set on HeLa Kyoto [2] (cell cycle stage: G1/S), the melting temperature was 54.7 °C.
In turn, “MAGLEVLFASAAPAITCRQDALVCFLHWEVVTHGYFGLGVGDQPGPNDKKSELLPAGWNNNKDLYVLRYEYKDGSRKLLVKAITVESSMILNVLEYGSQQVADLTLNLDDYIDAEHLGDFHRTYKNSEELRSRIVSGIITPIHEQWEKANVSSPHREFPPATAREVDPLRIPPHHPHTSRQPPWCDPLGPFVVGGEDLDPFGPRRGGMIVDPLRSGFPRALIDPSSGLPNRLPPGAVPPGARFDPFGPIGTSPPGPNPDHLPPPGYDDMYL [PSMF1]” came in with a melting temperature in the data set on HeLa Kyoto [2] (cell cycle stage: mitosis) of 53 °C.
For “MAAAAAGAGSGPWAAQEKQFPPALLSFFIYNPRFGPREGQEENKILFYHPNEVEKNEKIRNVGLCEAIVQFTRTFSPSKPAKSLHTQKNRQFFNEPEENFWMVMVVRNPIIEKQSKDGKPVIEYQEEELLDKVYSSVLRQCYSMYKLFNGTFLKAMEDGGVKLLKERLEKFFHRYLQTLHLQSCDLLDIFGGISFFPLDKMTYLKIQSFINRMEESLNIVKYTAFLYNDQLIWSGLEQDDMRILYKYLTTSLFPRHIEPELAGRDSPIRAEMPGNLQHYGRFLTGPLNLNDPDAKCRFPKIFVNTDDTYEELHLIVYKAMSAAVCFMIDASVHPTLDFCRRLDSIVGPQLTVLASDICEQFNINKRMSGSEKEPQFKFIYFNHMNLAEKSTVHMRKTPSVSLTSVHPDLMKILGDINSDFTRVDEDEEIIVKAMSDYWVVGKKSDRRELYVILNQKNANLIEVNEEVKKLCATQFNNIFFLD [CCZ1B]”, the results for the melting temperature in the data set on HeLa Kyoto [2] (cell cycle stage: G1/S) and in the data set with HeLa Kyoto [2] (cell cycle stage: mitosis) were 50.9 °C and 51.8 °C, respectively.
“MAAHRKHVFVEKVLQRLFPPVPSGQGKREPQTLAVQNPPKKVTSEKVSQKHAEPLTDTGSETPTARRLYTASGPPEGYVPCWPEPSSCGSPENASSGDDTEDQDPHDQPKRRRIRKHKSKKKFKNPNNVLIEQAELEKQQSLLQEKSQRQHTDGTTISKNKKRKLKKKQQIKRKKAAGLAAKAAGVSFMYQPEDSSNEGEGVGEACEEDGVDTSEEDPTLAGEEDVKDTREEDGADASEEDLTRARQEEGADASEEDPTPAGEEDVKDAREEDGVDTIEEDLTRAGEEDGKDTREEDGADASEEDPTWAGEEEGADSGEEDGADASEEDDTITNEKAHSILNFLKSTQEMYFYDGVSRDAASAALADAAEELLDRLASHSMLPSDVSILYHMKTLLLLQDTERLKHALEMFPEHCTMPPDHARVISAFFSYWITHILPEKSSD [ERICH1]” returned a melting temperature in the data set with HeLa Kyoto [2] (cell cycle stage: mitosis) of 52.6 °C.
As for “MASLKCSTVVCVICLEKPKYRCPACRVPYCSVVCFRKHKEQCNPETRPVEKKIRSALPTKTVKPVENKDDDDSIADFLNSDEEEDRVSLQNLKNLGESATLRSLLLNPHLRQLMVNLDQGEDKAKLMRAYMQEPLFVEFADCCLGIVEPSQNEES [ZNHIT3]”, the melting temperature turned out to be 50.4 °C in the data set with HeLa Kyoto [2] (cell cycle stage: G1/S) and 52.7 °C with HeLa Kyoto [2] (cell cycle stage: mitosis).
In the case of “MGDEKDSWKVKTLDEILQEKKRRKEQEEKAEIKRLKNSDDRDSKRDSLEEGELRDHRMEITIRNSPYRREDSMEDRGEEDDSLAIKPPQQMSRKEKAHHRKDEKRKEKRRHRSHSAEGGKHARVKEKEREHERRKRHREEQDKARREWERQKRREMAREHSRRERDRLEQLERKRERERKMREQQKEQREQKERERRAEERRKEREARREVSAHHRTMREDYSDKVKASHWSRSPPRPPRERFELGDGRKPGEARPAPAQKPAQLKEEKMEERDLLSDLQDISDSERKTSSAESSSAESGSGSEEEEEEEEEEEEEGSTSEESEEEEEEEEEEEEETGSNSEEASEQSAEEVSEEEMSEDEERENENHLLVVPESRFDRDSGESEEAEEEVGEGTPQSSALTEGDYVPDSPALSPIELKQELPKYLPALQGCRSVEEFQCLNRIEEGTYGVVYRAKDKKTDEIVALKRLKMEKEKEGFPITSLREINTILKAQHPNIVTVREIVVGSNMDKIYIVMNYVEHDLKSLMETMKQPFLPGEVKTLMIQLLRGVKHLHDNWILHRDLKTSNLLLSHAGILKVGDFGLAREYGSPLKAYTPVVVTLWYRAPELLLGAKEYSTAVDMWSVGCIFGELLTQKPLFPGKSEIDQINKVFKDLGTPSEKIWPGYSELPAVKKMTFSEHPYNNLRKRFGALLSDQGFDLMNKFLTYFPGRRISAEDGLKHEYFRETPLPIDPSMFPTWPAKSEQQRVKRGTSPRPPEGGLGYSQLGDDDLKETGFHLTTTNQGASAAGPGFSLKF [CDK11B]”, the results for the melting temperature in the data set with HeLa Kyoto [2] (cell cycle stage: G1/S) and with HeLa Kyoto [2] (cell cycle stage: mitosis) were 46.5 °C and 50.3 °C, respectively.
In the data set with HeLa Kyoto [2] (cell cycle stage: mitosis), “MASGGGGGNTGAGGGPGMGLSLGLGLGLSLGMSEATSEAEEEAATAEAVGRLATTLWLRLRGWEAVLAAAQRLLVWEKPLHSLVTAAALNGLFWLLSSSSLRPFFLLSVSLLAYFLLDLWQPRFLPDVSASSPEEPHSDSEGAGSGARPHLLSVPELCRYLAESWLTFQIHLQELLQYKRQNPAQFCVRVCSGCAVLAVLGHYVPGIMISYIVLLSILLWPLVVYHELIQRMYTRLEPLLMQLDYSMKAEANALHHKHDKRKRQGKNAPPGGDEPLAETESESEAELAGFSPVVDVKKTALALAITDSELSDEEASILESGGFSVSRATTPQLTDVSEDLDQQSLPSEPEETLSRDLGEGEEGELAPPEDLLGRPQALSRQALDSEEEEEDVAAKETLLRLSSPLHFVNTHFNGAGSPPDGVKCSPGGPVETLSPETVSGGLTALPGTLSPPLCLVGSDPAPSPSILPPVPQDSPQPLPAPEEEEALTTEDFELLDQGELEQLNAELGLEPETPPKPPDAPPLGPDIHSLVQSDQEAQAVAEP [FAM134A]” showed a melting temperature of 55.2 °C.
With “MGLELFLDLVSQPSRAVYIFAKKNGIPLELRTVDLVKGQHKSKEFLQINSLGKLPTLKDGDFILTESSAILIYLSCKYQTPDHWYPSDLQARARVHEYLGWHADCIRGTFGIPLWVQVLGPLIGVQVPKEKVERNRTAMDQALQWLEDKFLGDRPFLAGQQVTLADLMALEELMQPVALGYELFEGRPRLAAWRGRVEAFLGAELCQEAHSIILSILEQAAKKTLPTPSPEAYQAMLLRIARIP [GSTT2]”, the melting temperature with HeLa Kyoto [2] (cell cycle stage: G1/S) turned out to be 54.9 °C; with HeLa Kyoto [2] (cell cycle stage: mitosis) it was 55.1 °C.

Source of the values: the supplement of paper PMC5998384.
